We go through 4 substances from US20190048074A1.

Assay [1] addresses full length cynomolgus APLNR (cynomolgus monkey (Macaca fascicularis)). The assay can be described thus: FACS, 10 µg/mL antibody, HEK293/CRE-luc/MfAPLNR cells.
The target in assay [2] is full-length human APLNR (human) (UniProt P35414). Put plainly: FACS, 10 µg/mL antibody, HEK293/CRE-luc/hAPLNR cells. (Flow cytometry measures light scatter and fluorescence of single cells or particles in a stream.)
Assay [3] has the same target. Put plainly: FACS, 4 µg/mL secondary alone, HEK293/CRE-luc/hAPLNR cells.
Assay [4] deals with full length cynomolgus APLNR (cynomolgus monkey (Macaca fascicularis)). Put plainly: FACS, 4 µg/mL secondary alone, HEK293/CRE-luc/MfAPLNR cells.
In assay [5] the target is full-length human APLNR (human) (UniProt P35414). The assay can be described thus: FACS, secondary alone, HEK293/CRE-luc/hAPLNR cells.
The target of assay [6] is full length cynomolgus APLNR (cynomolgus monkey (Macaca fascicularis)). The assay can be described thus: FACS, secondary alone, HEK293/CRE-luc/MfAPLNR cells.

Chain of full-length human APLNR (human) (P35414 whole entry): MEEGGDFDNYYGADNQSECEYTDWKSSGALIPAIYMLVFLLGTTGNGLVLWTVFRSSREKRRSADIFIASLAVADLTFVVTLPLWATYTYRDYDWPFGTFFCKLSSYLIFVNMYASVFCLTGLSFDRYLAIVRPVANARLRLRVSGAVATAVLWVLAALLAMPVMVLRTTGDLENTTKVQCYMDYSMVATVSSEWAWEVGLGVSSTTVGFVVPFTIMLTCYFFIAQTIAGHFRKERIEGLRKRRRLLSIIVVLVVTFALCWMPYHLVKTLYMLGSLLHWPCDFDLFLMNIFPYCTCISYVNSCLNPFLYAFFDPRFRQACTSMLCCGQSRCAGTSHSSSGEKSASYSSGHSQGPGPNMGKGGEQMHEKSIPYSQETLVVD
Chain of full length cynomolgus APLNR (cynomolgus monkey (Macaca fascicularis)) (O97666 whole entry): as the sequence (P35414 whole entry) above, with F101S, L167F, E194D, I290V counted along it

In the case of “Isotype Control (Tables 4 and 5) (antibody)”, the Binding Ratio of Geom. Mean to Unstained Cells in assay [1] and in assay [2] was 2 fold each time.

Consider mouse IgG (mIgG) control antibody, for which the figures for the Binding Ratio of Geom. Mean to Unstained Cells in assay [1] and in assay [2] were 6 fold and 7 fold, respectively.

Regarding “anti-mouse IgG antibody conjugated with Alexa 647”, the results for the Binding Ratio of Geom. Mean to Unstained Cells in assay [3] and in assay [4] were 4 fold and 3 fold, respectively.

Consider “anti-human IgG antibody conjugated with Alexa 488”, for which the Binding Ratio of Geom. Mean to Unstained Cells in assay [3], in assay [4], in assay [5] and in assay [6] was 2 fold each time.
